“Also recorded” adds a separate entry of the source.
Legend:
DRB1*1101 (DR11) = DRB1*1101 (DR11) (Homo sapiens, UniProt P01903+P01911, A100R/A169T/A87E/I96F/K41T/L162R/M171V/P40S/Q125H/Q178H/Q39Y/Q99D/R42S/S66Y/T262R/V115G/W38E); assay type: binding
DRB1*0701 (DR7) = DRB1*0701 (DR7) (Homo sapiens, UniProt P01903+P01911, A100R/A102G/A103Q/D57E/D86V/E43K/F76Y/K127E/L162R/M171V/P40G/Q125H/Q99D/R33Q/R42Y/R54Q/S133A/S66F/T210M/V115G/Y107V/Y59L/Y89S); assay type: binding
DRB1*0401 (DR4) = DRB1*0401 (DR4) (Homo sapiens, UniProt P01903+P01911, A100K/A169T/F76Y/I96L/K127E/L162R/M171V/N62H/P40V/Q125Y/R42H/S133A/S149N/S66Y/V115G/V209L/W38E); assay type: binding
DRB1*0301 (DR3) = DRB1*0301 (DR3) (Homo sapiens, UniProt P01903+P01911, A100K/A102G/A103R/A169T/F55Y/I96L/K41T/L162R/M171V/P40S/Q125H/Q178H/Q39Y/R42S/S66N/T106N/T262R/W38E/Y61H); assay type: binding
human PBMCs = assay type: cell-based
HLA-DR molecules = assay type: binding, human
DRB1*1501 (DR15) = DRB1*1501 (DR15) (Homo sapiens, UniProt P01903+P01911); assay type: binding
[1] = system: CD4^+ T cells of HLA class II transgenic mice; assay type: cell-based
DRB1*0101 (DR1) = DRB1*0101 (DR1) (Homo sapiens, UniProt P01903+P01911, A100R/D57E/F55L/F60I/F76Y/I96L/L162R/M171V/P40L/Q125E/R42F/V115G/Y59C); assay type: binding
DRB1*1301 (DR13) = DRB1*1301 (DR13) (Homo sapiens, UniProt P01903+P01911, A100E/A169T/K41T/L162R/M171V/P40S/Q125H/Q178H/Q39Y/Q99D/R42S/S66N/T262R/W38E/Y61H); assay type: binding

For KIYLYENMNINNLTATLGAD, the “Relative binding affinity of peptide to HLA-DR molecules, DR11” value (DRB1*1101 (DR11)) was 5, the “Strong relative binding affinity of peptide to HLA-DR molecules, DR11” value (DRB1*1101 (DR11)) was “+ (key: +: Strong binding affinity was defined in this study as a relative activity <10)” and the “Relative binding affinity of peptide to HLA-DR molecules, DR7” value (DRB1*0701 (DR7)) was 5. For the same sequence, the “Strong relative binding affinity of peptide to HLA-DR molecules, DR7” value (DRB1*0701 (DR7)) was “+ (key: +: Strong binding affinity was defined in this study as a relative activity <10)”, the “Relative binding affinity of peptide to HLA-DR molecules, DR4” value (DRB1*0401 (DR4)) was 0.2 and the “Strong relative binding affinity of peptide to HLA-DR molecules, DR4” value (DRB1*0401 (DR4)) was “+ (key: +: Strong binding affinity was defined in this study as a relative activity <10)”. The “Relative binding affinity of peptide to HLA-DR molecules, DR3” value (DRB1*0301 (DR3)) was 1, the “Strong relative binding affinity of peptide to HLA-DR molecules, DR3” value (DRB1*0301 (DR3)) was “+ (key: +: Strong binding affinity was defined in this study as a relative activity <10)” and the “T cell recognition in human cohorts” value (human PBMCs) was “recognized by a high proportion of naturally infected donors, but not vaccinated individuals”. The “Binding across all HLA-DR alleles assayed” value (HLA-DR molecules) was “strong binding affinity across all HLA-DR alleles assayed”, the “Binding to HLA-DR1, DR4 and DR15” value (HLA-DR molecules) was “strong binders to all three HLA-DR alleles” and the “Relative binding affinity of peptide to HLA-DR molecules, DR15” value (DRB1*1501 (DR15)) was 0.1. The “Strong relative binding affinity of peptide to HLA-DR molecules, DR15” value (DRB1*1501 (DR15)) was “+ (key: +: Strong binding affinity was defined in this study as a relative activity <10)”, the “CD4 T cell response in LF immunized HLA transgenics” value [1] was “recognised by all LF immunized HLA transgenics; also recorded: capable of eliciting a T cell response from all the HLA transgenics; also recorded: immunogenic in all three HLA-DR transgenic strains” and the “HLA-restriction based on CD4 T cell response class II HLA transgenics after priming with LF” value [1] was “DR1, DR4, DR15,; also recorded: DQ8, DQ6”. For the same sequence, the Peptide-specific recall response [1] was “strongest peptide recall in both groups”, the “Relative binding affinity of peptide to HLA-DR molecules, DR1” value (DRB1*0101 (DR1)) was 0.2 and the “Strong relative binding affinity of peptide to HLA-DR molecules, DR1” value (DRB1*0101 (DR1)) was “+ (key: +: Strong binding affinity was defined in this study as a relative activity <10)”. For the same sequence, the “Relative binding affinity of peptide to HLA-DR molecules, DR13” value (DRB1*1301 (DR13)) was 17.
